Assay results from the supplement of paper PMC9170038.

Test system: MS2 coat protein
Test: apparent KD of MS2 coat protein; designed switch direction (-1 OFF switch, 1 ON switch): -1; higher = weaker reporter binding
Method in brief: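 The reported apparent KD is a per-design median over clusters, from curve fits of normalised cluster fluorescence. Protein titrations used SNAP-549-labelled MS2 coat protein, doubled from 0.7 or 1.5 nM to 3 µM, in Tris-HCl pH 7.5 buffer with KCl, MgCl2, BSA, DTT, tRNA and Tween-20, with no input, 200 uM small-molecule ligand, or an oligonucleotide input. The RNA switches were transcribed on Illumina chips by stalled E. coli RNA polymerase.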

[1] = input ligand: microRNA oligo, concentration not stated

Sequence	apparent KD of MS2 coat protein [1] [nM]	apparent KD of MS2 coat protein (input ligand: FMN 200 uM) [nM]	apparent KD of MS2 coat protein (input ligand: none) [nM]
GUGUACAGAGGAUAUAUAUGAGCUAGGAAACUAGCAAGAUCACAUGAGGAUCACCCAUGUAGAAGGCUGUACAC [Ex2: 735] (Eterna round: R96, puzzle: Exclusion 2)	102		
UAAUAUCUGCAGGAUAUCGGUGUAGCACGCGUAUGAGAAGGGCAGACAUGAGGAUCACCCAUGUAUUAUAUCCG [Eternabot (L2) Solution 39] (Eterna round: R97, puzzle: Exclusion 6)		34.8	24.5
GAUAAUGAAGGAUAUACAGGCGGUCCGUGACUAGUCUUCAUACAUGAGGAUCACCCAUGUAGAAGGUCAAUGUU [Eternabot (L1) Solution 64] (Eterna round: R97, puzzle: Exclusion 2)		23.3	14.4
GAUUAUGCAAGCUUUUGGGACAUGAGGAUCACCCAUGUUCGUCUUAUUGAUCUAGGUACGCUGACGUACCUAGAUCU [JL-sv1-2.32 Brourd mod] (Eterna round: R96, puzzle: Sensor v3, turn-off variant 1)	52.1	14.8	17.2
GGACAGGGAGGAUAUACUUGAGGAUCACCCAAGUCGUAUAAUCGAUGAACACGCCGAAGUAGAAGGCCCAAAAG [Esorgebi] (Eterna round: R97, puzzle: Exclusion 3)		403	131
AGCGCCAUCGUGAGAUGGCGUAUUACAUGAGGAUCACCCAUGUAGGAUAUCGAUUGCUUUGCAGUCGAGAAGGGCAUGUACCAG [JL ENG3 3.80 Mod K] (Eterna round: R96, puzzle: Exclusion NG 3)	32.8	54.7	46
UCUUACUGAGGAUAUACAUAGAUUUACAUGAGGAUCACCCAUGUUCCUCUAUGUAUAAAUGUAGAAGGCAGAAGAA [Mat - Exclusion 5 - JL Mod - D53] (Eterna round: R97, puzzle: Exclusion 5)		82.6	17.8
GCACUGCGAGGAUAUACAUGAGGAUCACCCAUGUGUCGGCAGCCAUGUCAGUACAAAUGUAGAAGGCGCGUAAA [EX3 #54] (Eterna round: R97, puzzle: Exclusion 3)		87.5	28.8
UCCUCACAUGAGGAUCACCCAUGUCAGGAUAUACGAACGGUAAGUGACAAUCGAUUACGUAGAAGGGACUGCGG [Eternabot (L1) Solution 78] (Eterna round: R97, puzzle: Exclusion 1)		110	121
CAGUACUGAGGAUAUACAUGAGGAUCACCCAUGUGUUCCAGCUAGGAGACUAGCAUAUGUAGAAGGCAGUACUG [jl-ex3-4.03 salish99 mod] (Eterna round: R97, puzzle: Exclusion 3)		338	326
AGCCUAGCAGGAUAUGCCCGGGAUAACAUGAGGAUCACCCAUGUGACCGAUUGAUGUCCUGCAGAAGGGCUAGGGA [JL-EX5-4.00 ViennaUCT mod] (Eterna round: R97, puzzle: Exclusion 5)		20.9	18.5
GUUGUUUAUGUAGGAUAUGCAAGGCGAACCUAAGCAGAAGGACAUGAGGAUCACCCAUGUAUUGCGGUCUGCGUUCAGAUCGCU [salish99_ExNG1_r4_014] (Eterna round: R96, puzzle: Exclusion NG 1)	16.3	56.8	20.1
